Measurements reported in patent US20240424127A1 (BRIGHT PEAK THERAPEUTICS, published 2024).
Residue numbers refer to the chain shown, from its start. In names and notes the source's numbering stands. Like-named read-outs stand apart in the source and are kept apart here. Bridges are numbered along the chain shown (N, C = ends). [ ]: non-standard residue; d: D form. glutaryl‑PEG9‑azide = glutaryl-PEG9-azide group on the N-terminal amine; hSer = N[C@@H](CCO)C(=O)O; Nle = CCCC[C@H](N)C(=O)O

Experiments:
[1] = target: T1, IL-7 receptor (IL-7Rα/γc heterodimer) on primary human T cells (human, UniProt P16871 21-459; P31785 23-369); test: cell-based or functional assay
T1 sequence (looked up) 1: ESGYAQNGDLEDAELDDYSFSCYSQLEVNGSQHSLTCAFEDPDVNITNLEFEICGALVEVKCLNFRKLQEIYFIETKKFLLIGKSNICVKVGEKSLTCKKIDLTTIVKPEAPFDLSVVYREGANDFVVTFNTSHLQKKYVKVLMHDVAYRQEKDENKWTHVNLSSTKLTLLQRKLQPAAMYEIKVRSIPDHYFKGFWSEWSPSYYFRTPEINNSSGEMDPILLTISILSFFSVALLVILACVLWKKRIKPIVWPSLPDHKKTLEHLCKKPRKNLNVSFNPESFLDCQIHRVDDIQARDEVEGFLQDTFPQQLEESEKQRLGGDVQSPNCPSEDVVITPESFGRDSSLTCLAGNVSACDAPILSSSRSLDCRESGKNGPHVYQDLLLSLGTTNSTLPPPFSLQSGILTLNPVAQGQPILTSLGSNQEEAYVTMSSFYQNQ
T1 sequence (looked up) 2: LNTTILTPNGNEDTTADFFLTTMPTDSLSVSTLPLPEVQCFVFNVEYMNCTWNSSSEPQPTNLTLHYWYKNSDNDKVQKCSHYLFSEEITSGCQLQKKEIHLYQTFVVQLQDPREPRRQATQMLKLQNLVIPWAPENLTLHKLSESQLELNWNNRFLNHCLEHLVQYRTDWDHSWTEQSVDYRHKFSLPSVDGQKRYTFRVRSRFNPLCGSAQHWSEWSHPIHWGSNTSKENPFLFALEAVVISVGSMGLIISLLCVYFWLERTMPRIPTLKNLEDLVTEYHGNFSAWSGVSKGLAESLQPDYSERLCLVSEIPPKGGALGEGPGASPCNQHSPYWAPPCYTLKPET

[2] = target: T2, Recombinant Human IL-7R alpha/CD127 Fc Avi-tag Protein, CF (R&D Systems #AVI10317-050) (human, UniProt P16871 21-239); test: BLI (Octet R8); CD127-Fc-Avi loaded on SAX2 sensor, IL-7 polypeptide as analyte
T2 construct: Bought construct; It was loaded on streptavidin (SAX/SAX2) biosensors; not shown: Fc and Avi-tag of a bought protein
T2 sequence (looked up): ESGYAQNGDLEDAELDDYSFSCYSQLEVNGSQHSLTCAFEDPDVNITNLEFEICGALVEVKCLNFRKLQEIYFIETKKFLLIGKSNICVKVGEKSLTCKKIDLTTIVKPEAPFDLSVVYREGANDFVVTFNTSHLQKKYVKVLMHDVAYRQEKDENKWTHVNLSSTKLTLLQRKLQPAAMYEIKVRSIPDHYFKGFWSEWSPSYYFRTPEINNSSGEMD

[3] = target: T2, Recombinant Human IL-7R alpha/CD127 Fc …; test: as above; remark: listed apart in the source
[4] = target: T2, Recombinant Human IL-7R alpha/CD127 Fc …; test: as above; remark: listed apart in the source
[5] = target: T2, Recombinant Human IL-7R alpha/CD127 Fc …; test: as above; remark: listed apart in the source
[6] = target: T2, Recombinant Human IL-7R alpha/CD127 Fc …; test: as above; remark: listed apart in the source
[7] = target: T3, Biotinylated Recombinant Human PD-1 (CD279)-Fc Chimera (carrier-free), Biolegend #789406 (human, UniProt Q15116 25-167, biotinylated); test: Direct huPD1 ELISA: antibody coated on the plate, serial dilution of biotinylated human PD-1-Fc (x axis 'Biotin PD1 (nM)'), signal at 450 nm
T3 construct: Bought PD-1-Fc; also called h-PD1 Fc; not shown: Fc part of a bought chimera
T3 sequence (Q15116 25-167, change not shown): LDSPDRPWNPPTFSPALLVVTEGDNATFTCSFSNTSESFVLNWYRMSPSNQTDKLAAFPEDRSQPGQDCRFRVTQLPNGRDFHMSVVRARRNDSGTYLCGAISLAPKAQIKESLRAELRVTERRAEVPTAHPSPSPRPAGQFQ

[8] = target: T3, Biotinylated Recombinant Human PD-1 …; test: ELISA: antibody coated on the plate, serial dilution of biotinylated human PD-1-Fc, streptavidin-HRP, OD 450 nm (x axis printed as 'Molecule (nM)')
Method: (§1) Each of these variant conjugates and unmodified antibodies are assayed by ELISA for their ability to bind to human PD-1 according to the following protocol.
(§2) Streptavidin-HRP is Sigma #RABHRP3. TMB solution is 3,3′,5,5′-Tetramethylbenzidine (Sigma T0440). Stop solution is Sigma #CL07STOP solution (0.5M H₂SO₄). Buffers are: Coating buffer is PBS. Wash buffer is PBS-0.02% Tween20. Blocking buffer is PBS-0.02% Tween20 1% BSA. Protein diluent is PBS-0.02% Tween20 0.1% BSA. STOP solution is 0.5M H₂SO₄. Procedure: Immunocytokines and parental antibody are coated overnight at 4° C. The ELISA plates are washed 4 times with 100 μl PBS-0.02% Tween20. and blocked with PBS-1% BSA. A serial dilution of h-PD1 Fc is prepared and plates are incubated for two hours at 37° C., with shaking (600 rpm). ELISA plates are washed and incubated with Streptavidin-HRP 30 min at RT, with shaking (600 rpm). ELISA plates are washed and incubated with ready-to-use TMB solution. Reaction is stopped and plates are read by OD450 on an Enspire plate reader.

[9] = target: T3, Biotinylated Recombinant Human PD-1 …; test: Direct huPD1 ELISA: immunocytokine coated on the plate, serial dilution of biotinylated human PD-1-Fc (x axis 'Biotin PD1 (nM)'), signal at 450 nm
Method: as §1, §2

[10] = target: T2, Recombinant Human IL-7R alpha/CD127 Fc …; test: BLI (Octet R8); CD127-Fc-Avi loaded on SAX2 sensor, immunocytokine as analyte
[11] = target: T3, Biotinylated Recombinant Human PD-1 …; test: ELISA: immunocytokine coated on the plate, serial dilution of biotinylated human PD-1-Fc, streptavidin-HRP, OD 450 nm (x axis printed as 'Molecule (nM)')
Method: as §1, §2

[12] = target: T2, Recombinant Human IL-7R alpha/CD127 Fc …; test: BLI (Octet R8); CD127-Fc-Avi loaded on SAX2 sensor, immunocytokine as analyte; remark: listed apart in the source

B1: CMP-106, recombinant IL-7 V15W with His-tag (ligand)
chain: DCDIEGKDGKQYESWLMVSIDQLLDSMKEIGSNCLNNEFNFFKRHICDANKEGMFLFRAARKLRQFLKMNSTGDFDLHLLKVSEGTTILLNCTGQVKGRKPAALGEAQPTKSLEENKSLKEQKKLNDLCFLKRLLQEIKTCWNKILMGTKEHVDHHHHHH
notes: V15W is already in the entry, which also includes the C-terminal His-tag; also called IL-7 V15W (Recomb-HIS6)
EC50 pSTAT5, CD4 Memory [1]: 0.93 nM | EC50 pSTAT5, CD4 Naive [1]: 0.814 nM | EC50 pSTAT5, CD4 Treg [1]: 27.7 nM | EC50 pSTAT5, CD8 Memory [1]: 3.22 nM | EC50 pSTAT5, CD8 Naive [1]: 1.28 nM | Kd [2]: 66300 pM | koff [2]: 0.0321 s⁻¹ | kon [2]: 485000 M⁻¹ s⁻¹

B2: CMP-108, synthetic IL-7 of SEQ ID NO: 3 with glutaryl-PEG9-azide at the N-terminus (ligand)
chain: {glutaryl‑PEG9‑azide}-DCDIEGKDGKQYESVL[Nle]VSIDQLLDS[Nle]KEIGSNCL[hSer]NEFNFFKRHICDANKEG[Nle]FLFRAARKLRQFLK[Nle]NSTGDF[hSer]LHLLKVSEGTTILLNCTGQVKGRKPAALGEAQPTKSL[hSer]ENKSLKEQKKLNDLCFLKRLLQEIKTCWNKIL[Nle]GTKEH-NH2
modifications: disulfide 34-129, 47-141, 2-92
notes: The suffix is not explained; also called synthetic IL-7, WT with an N-terminal conjugation handle
EC50 pSTAT5, CD4 Memory [1]: 6 pM | EC50 pSTAT5, CD4 Naive [1]: 6 pM | EC50 pSTAT5, CD4 Treg [1]: 20 pM | EC50 pSTAT5, CD8 Memory [1]: 8 pM | EC50 pSTAT5, CD8 Naive [1]: 8 pM | Kd [3]: 254 pM | koff [3]: 0.00167 s⁻¹ | kon [3]: 6.59e+06 M⁻¹ s⁻¹ | Kd [4]: 2750 pM | koff [4]: 0.00901 s⁻¹ | kon [4]: 3.28e+06 M⁻¹ s⁻¹

B3: CMP-110, synthetic IL-7 G85N of SEQ ID NO: 7 with glutaryl-PEG9-azide at the N-terminus (ligand)
chain: {glutaryl‑PEG9‑azide}-DCDIEGKDGKQYESVL[Nle]VSIDQLLDS[Nle]KEIGSNCL[hSer]NEFNFFKRHICDANKEG[Nle]FLFRAARKLRQFLK[Nle]NSTGDF[hSer]LHLLKVSENTTILLNCTGQVKGRKPAALGEAQPTKSL[hSer]ENKSLKEQKKLNDLCFLKRLLQEIKTCWNKIL[Nle]GTKEH-NH2
modifications: disulfide 34-129, 47-141, 2-92
notes: The suffix is not explained; also called CMP-110-001
EC50 pSTAT5, CD4 Memory [1]: 30 pM | EC50 pSTAT5, CD4 Naive [1]: 30 pM | EC50 pSTAT5, CD4 Treg [1]: 67 nM | EC50 pSTAT5, CD8 Memory [1]: 80 pM | EC50 pSTAT5, CD8 Naive [1]: 50 pM | koff [5]: 0.0225 s⁻¹ | kon [5]: 2.51e+06 M⁻¹ s⁻¹ | Kd [6]: 9470 pM | koff [6]: 0.0269 s⁻¹ | kon [6]: 2.84e+06 M⁻¹ s⁻¹

B4: LZM-009 (antibody, V domains shown)
VH: QVQLVQSGAEVKKPGASVKVSCKASGYTFTSYYMYWVRQAPGQGLEWMGGVNPSNGGTNFNEKFKSRVTITADKSTSTAYMELSSLRSEDTAVYYCARRDYRYDMGFDYWGQGTTVTVSS
VL: EIVLTQSPATLSLSPGERATISCRASKGVSTSGYSYLHWYQQKPGQAPRLLIYLASYLESGVPARFSGSGSGTDFTLTISSLEPEDFATYYCQHSRELPLTFGTGTKVEIK
notes: It is a whole antibody with an Fc region (conjugated at K248)
EC50 [7]: 35 pM | EC50 [8]: 35 pM

B5: CMP-041, LZM-009 conjugated to synthetic IL-7 (WT) CMP-108, DAR 1, at K248 (other)
VH: B4 VH
VL: B4 VL
chain: DCDIEGKDGKQYESVLXVSIDQLLDSXKEIGSNCLXNEFNFFKRHICDANKEGXFLFRAARKLRQFLKXNSTGDFXLHLLKVSEGTTILLNCTGQVKGRKPAALGEAQPTKSLXENKSLKEQKKLNDLCFLKRLLQEIKTCWNKILXGTKEH
modifications: not fully specified; norleucine (Nle) at 17, 27, 54, 69, 147; homoserine (Hse) at 36, 76, 114; N-terminal glutaryl-PEG9-azide reacted with the DBCO linker on the antibody; K248 (EU numbering) of the Fc region carries the linker to IL-7 (DAR 1)
notes: Immunocytokine (chemical conjugate, not a fusion)
EC50 [9]: 34.8 pM | koff [10]: 0.00979 s⁻¹ | kon [10]: 2.95e+06 M⁻¹ s⁻¹ | EC50 [11]: 34.8 pM

B6: CMP-116, LZM-009 conjugated to synthetic IL-7 (V15W) CMP-107, DAR 1, at K248 (other)
VH: B4 VH
VL: B4 VL
chain: B5 chain with V15W
modifications: not fully specified; norleucine (Nle) at 17, 27, 54, 69, 147; homoserine (Hse) at 36, 76, 114; N-terminal glutaryl-PEG9-azide reacted with the DBCO linker on the antibody; K248 (EU numbering) of the Fc region carries the linker to IL-7 (DAR 1)
notes: Immunocytokine (chemical conjugate)
EC50 [9]: 34.1 pM | koff [12]: 0.0473 s⁻¹ | kon [12]: 2.9e+06 M⁻¹ s⁻¹
